Source: patent US10912839B2, “Methods of treating cancer using compounds containing a vascular disrupting agent” (priority 2008, dated 2021)
Non-standard residues stand in square brackets, D forms with d. Residues, ends and D or L forms follow the SMILES beside them. No end group written: not given here. *: point of attachment. NH(Colchicin-10-yl) = COc1cc2c(c(OC)c1OC)-c1ccc(N*)c(=O)cc1[C@@H](NC(C)=O)CC2; FITC = O=C1OC2(c3ccc(O)cc3Oc3cc(O)ccc32)c2ccc(NC(=S)*)cc21; hPhe = N[C@@H](CCc1ccccc1)C(=O)O; Cit = NC(=O)NCCC[C@H](N)C(=O)O; βAla = NCCC(=O)O

Key:
[1] = Off-target toxicity by mouse body weight in antitumour study; type: in vivo, Balb/C mice
Method: (§1) ICT-2552 and ICT-2588 (‘prodrug’) were administered as a single dose via the intraperitoneal route to Balb/C mice bearing subcutaneous HT1080 xenografts. Each of the nine dosing groups comprised 8 mice. The anti-tumour effects of the compounds were assessed by determination of tumour volume and the existence of off-target toxicity was ascertained via monitoring mouse body weight.
(§2) The dosing groups evaluated ICT-2588 (prodrug) relative to the molar equivalent dose of ICT-2552 (warhead), and were: • 10% DMSO/oil (solvent control) • ICT-2588 at 37.5 mg/kg; 50.0 mg/kg; 62.5 mg/kg; 75.0 mg/kg • ICT-2552 at 7.5 mg/kg; 10.0 mg/kg; 12.5 mg/kg; 15 mg/kg Results
The weight of all mice was within the tolerated loss of 15% of bodyweight, therefore the compounds are not classified as toxic to the whole body system.

[2] = system: HT1080 xenografts; test: Dose response antitumour study, subcutaneous HT1080 xenografts; type: in vivo, Balb/C mice; conditions: for Growth delay: vs control
Method: as §1, §2

[3] = Tissue levels of prodrug and VDA2 after intraperitoneal dosing of HT1080 tumour-bearing mice; type: in vivo; conditions: for VDA2 levels in tumour following prodrug administration: HT1080 tumour; for prodrug accumulation in tissues / site of highest prodrug levels: HT1080 tumour-bearing mice
Description: (§3) Liver was representative of all normal tissues analysed. (FIG. 5) • d.

[4] = Ex vivo prodrug stability in normal mouse liver homogenate (LC/MS/MS); type: in vitro ADME; conditions: for stability in liver homogenate: normal mouse liver homogenate ex vivo; for half-life: mouse, tissue homogenate, murine liver homogenate, mean of four independent experiments, read-out: Liver t½
Description: as §3
(§4) Half lives are the mean taken from four independent experiments. Liver represent murine liver homogenate and tumour represents HT1080

[5] = Ex vivo prodrug metabolism in HT1080 tumour homogenate (LC/MS/MS); type: in vitro ADME, human; conditions: for half-life: human, tissue homogenate, HT1080 tumour homogenate, mean of four independent experiments, read-out: Tumour t½
Description: as §3, §4

[6] = Ex vivo prodrug stability in normal mouse plasma (LC/MS/MS); conditions: for stability in plasma: normal mouse plasma ex vivo; for stability in plasma and/or liver: alternative endcaps on MT-MMP prodrug
Description: Prodrug cleavage and metabolism were detected using LC/MS/MS. • a.

[7] = ICT-2552 10.0 mg/kg single i.p.
[8] = ICT-2552 12.5 mg/kg single i.p.
[9] = ICT-2552 15.0 mg/kg single i.p.

COc1cc2c(c(OC)c1OC)-c1ccc(N)c(=O)cc1[C@@H](NC(C)=O)CC2 [ICT-2552, azademethylcolchicine]
Maximum % weight loss ([1]; ICT-2552 7.5 mg/kg): 3% | day of maximum weight loss ([1]; ICT-2552 7.5 mg/kg): 4 days | Maximum % weight loss ([1]; ICT-2552 10.0 mg/kg): 6 (6) % | day of maximum weight loss ([1]; ICT-2552 10.0 mg/kg): 6 (6) day | Maximum % weight loss ([1]; ICT-2552 12.5 mg/kg): 6% | day of maximum weight loss ([1]; ICT-2552 12.5 mg/kg): 1 days | Maximum % weight loss ([1]; ICT-2552 15.0 mg/kg): 5% | day of maximum weight loss ([1]; ICT-2552 15.0 mg/kg): 1 days | Mean time to RTV2 ([2]; ICT-2552 7.5 mg/kg single i.p.): 4.0 days | Median time RTV2 ([2]; ICT-2552 7.5 mg/kg single i.p.): 3.8 days | Growth delay ([2]; ICT-2552 7.5 mg/kg single i.p.): 1.6 days | Mean time to RTV2 [2, 7]: 4.4 days | Median time RTV2 [2, 7]: 4.2 days | Growth delay [2, 7]: 2.0 days | Mean time to RTV2 [2, 8]: 4.5 days | Median time RTV2 [2, 8]: 4.7 days | Growth delay [2, 8]: 2.5 days | Mean time to RTV2 [2, 9]: 4.1 days | Median time RTV2 [2, 9]: 4.1 days | Growth delay [2, 9]: 1.9 days | delay in tumour growth ([2]; all evaluated doses): significant delay in tumour growth | tumour response ([2]; all tested dose levels): Tumour responses were observed

COc1cc2c(c(OC)c1OC)-c1ccc(NC(=O)[C@H](Cc3ccc(O)cc3)NC(=O)[C@H](CC(C)C)NC(=O)[C@H](Cc3ccc(O)cc3)NC(=O)[C@H](CCc3ccccc3)NC(=O)CNC(=O)[C@H](CCCNC(N)=O)NC(=O)[C@@H]3CCCN3C(=O)[C@H](CCC(=O)O)NC(=O)CCNC(=S)Nc3ccc4c(c3)C(=O)OC43c4ccc(O)cc4Oc4cc(O)ccc43)c(=O)cc1[C@@H](NC(C)=O)CC2 [Prodrug-1] ({FITC-βAla}-EP[Cit]G[hPhe]YLY-{NH(Colchicin-10-yl)})
prodrug level after 24 hours post-dosing ([3]; 24 hours): not detectable | VDA2 levels in tumour following prodrug administration [3]: detected at high levels | prodrug accumulation in tissues [3]: accumulated and was detected in all tissues analysed | site of highest prodrug levels [3]: Highest prodrug-1 levels were observed in the tumour | VDA2 levels in normal tissues following prodrug administration ([3]; normal tissues): detectable at low levels | VDA2 in normal tissues after 24 hours post-dosing ([3]; normal tissues, 24 hours): undetectable | VDA2 in tumour after 24 hours post-dosing ([3]; tumour, 24 hours): still detectable at high levels | stability in liver homogenate [4]: stable | metabolism in tumour homogenate ([5]; HT1080 xenograft homogenate ex vivo): metabolised | stability in plasma [6]: stable

COc1cc2c(c(OC)c1OC)-c1ccc(NC(=O)[C@H](Cc3ccc(O)cc3)NC(=O)[C@H](CC(C)C)NC(=O)[C@H](Cc3ccc(O)cc3)NC(=O)[C@H](CCc3ccccc3)NC(=O)CNC(=O)[C@H](CCCNC(N)=O)NC(=O)[C@H](CO)NC(=O)[C@H](CCCNC(=N)N)NC(=O)CCNC(=S)Nc3ccc4c(c3)C(=O)OC43c4ccc(O)cc4Oc4cc(O)ccc43)c(=O)cc1[C@@H](NC(C)=O)CC2 [ICT-2588] ({FITC-βAla}-RS[Cit]G[hPhe]YLY-{NH(Colchicin-10-yl)})
VDA2 levels in tumour following prodrug administration [3]: High concentrations | prodrug accumulation in tissues [3]: accumulated and was detected in all tissues analysed | site of highest prodrug levels [3]: Highest prodrug-2 levels were observed in the tumour | VDA2 in plasma following prodrug administration ([3]; plasma): undetectable | VDA2 level in tumour relative to normal tissues ([3]; tumour vs normal tissues): 10 times higher | levels of prodrug-2 and VDA2 in tumour 48 hours post administration ([3]; tumour, 48 hours): still detectable | half-life [4]: 149 min | stability in liver homogenate [4]: remained stable | metabolism in tumour homogenate, high versus low MT-MMP ([5]; HT1080 (high MT-MMP) relative to MCF7 (low MT-MMP) homogenate): metabolised rapidly | half-life [5]: 33 min | stability in plasma [6]: remained intact | Maximum % weight loss ([1]; ICT-2588 37.5 mg/kg): 3 (3) % | day of maximum weight loss ([1]; ICT-2588 37.5 mg/kg): 3 (3) day | Maximum % weight loss ([1]; ICT-2588 50.0 mg/kg): 5% | day of maximum weight loss ([1]; ICT-2588 50.0 mg/kg): 3 days | Maximum % weight loss ([1]; ICT-2588 62.5 mg/kg): 4% | day of maximum weight loss ([1]; ICT-2588 62.5 mg/kg): 3 days | Maximum % weight loss ([1]; ICT-2588 75.0 mg/kg): 5% | day of maximum weight loss ([1]; ICT-2588 75.0 mg/kg): 3 days

COc1cc2c(c(OC)c1OC)-c1ccc(NC(=O)[C@H](Cc3ccc(O)cc3)NC(=O)[C@H](CC(C)C)NC(=O)[C@H](C)NC(=O)[C@H](CCc3ccccc3)NC(=O)CNC(=O)[C@H](CCCNC(N)=O)NC(=O)[C@H](CO)NC(=O)[C@H](CCCNC(=N)N)NC(=O)CCNC(=S)Nc3ccc4c(c3)C(=O)OC43c4ccc(O)cc4Oc4cc(O)ccc43)c(=O)cc1[C@@H](NC(C)=O)CC2 [ICT3053] ({FITC-βAla}-RS[Cit]G[hPhe]ALY-{NH(Colchicin-10-yl)})
half-life [4]: 76 min | half-life [5]: 17 min

COc1cc2c(c(OC)c1OC)-c1ccc(NC(=O)[C@H](Cc3ccc(O)cc3)NC(=O)[C@H](CC(C)C)NC(=O)[C@H](CC(=O)O)NC(=O)[C@H](CCc3ccccc3)NC(=O)CNC(=O)[C@H](CCCNC(N)=O)NC(=O)[C@H](CO)NC(=O)[C@H](CCCNC(=N)N)NC(=O)CCNC(=S)Nc3ccc4c(c3)C(=O)OC43c4ccc(O)cc4Oc4cc(O)ccc43)c(=O)cc1[C@@H](NC(C)=O)CC2 [ICT3055] ({FITC-βAla}-RS[Cit]G[hPhe]DLY-{NH(Colchicin-10-yl)})
half-life [4]: 67 min | half-life [5]: 7 min

Quinic acid+2×D-Serine: conjugate based on MT-MMP prodrug (SEQ ID NO: 4) with quinic acid+2×D-Serine endcap (RS[Cit]G[hPhe]YLY; not fully specified (N-terminus); also: quinic acid + 2×D-Ser endcap, end not given here)
stability in plasma and/or liver [6]: insufficiently stable

COc1cc2c(c(OC)c1OC)-c1ccc(NC(=O)[C@H](Cc3ccc(O)cc3)NC(=O)[C@H](CC(C)C)NC(=O)[C@@H]3CCCN3C(=O)[C@H](CCc3ccccc3)NC(=O)CNC(=O)[C@H](CCCNC(N)=O)NC(=O)[C@H](CO)NC(=O)[C@H](CCCNC(=N)N)NC(=O)CCNC(=S)Nc3ccc4c(c3)C(=O)OC43c4ccc(O)cc4Oc4cc(O)ccc43)c(=O)cc1[C@@H](NC(C)=O)CC2 [ICT3097] ({FITC-βAla}-RS[Cit]G[hPhe]PLY-{NH(Colchicin-10-yl)})
half-life [4]: 110 min | half-life [5]: 24 min

COc1cc2c(c(OC)c1OC)-c1ccc(NC(=O)[C@H](Cc3ccc(O)cc3)NC(=O)[C@H](CC(C)C)NC(=O)[C@H](Cc3ccc(O)cc3)NC(=O)[C@H](CCc3ccccc3)NC(=O)CNC(=O)[C@H](CCCNC(N)=O)NC(=O)[C@H](CO)NC(=O)[C@H](CCCNC(=N)N)NC(=O)[C@@H](CO)NC(=O)[C@@H](CO)NC(=O)[C@H](N)CO)c(=O)cc1[C@@H](NC(C)=O)CC2 [3×D-Serine] (H-[dS][dS][dS]RS[Cit]G[hPhe]YLY-{NH(Colchicin-10-yl)})
stability in plasma and/or liver [6]: insufficiently stable

COc1cc2c(c(OC)c1OC)-c1ccc(NC(=O)[C@H](Cc3ccc(O)cc3)NC(=O)[C@H](CC(C)C)NC(=O)[C@H](CC(N)=O)NC(=O)[C@H](CCc3ccccc3)NC(=O)CNC(=O)[C@H](CCCNC(N)=O)NC(=O)[C@H](CO)NC(=O)[C@H](CCCNC(=N)N)NC(=O)CCNC(=S)Nc3ccc4c(c3)C(=O)OC43c4ccc(O)cc4Oc4cc(O)ccc43)c(=O)cc1[C@@H](NC(C)=O)CC2 [ICT3078] ({FITC-βAla}-RS[Cit]G[hPhe]NLY-{NH(Colchicin-10-yl)})
half-life [4]: 76 min | half-life [5]: 11 min

COc1cc2c(c(OC)c1OC)-c1ccc(NC(=O)[C@H](Cc3ccc(O)cc3)NC(=O)[C@H](CC(C)C)NC(=O)[C@H](CC(C)C)NC(=O)[C@H](CCc3ccccc3)NC(=O)CNC(=O)[C@H](CCCNC(N)=O)NC(=O)[C@H](CO)NC(=O)[C@H](CCCNC(=N)N)NC(=O)CCNC(=S)Nc3ccc4c(c3)C(=O)OC43c4ccc(O)cc4Oc4cc(O)ccc43)c(=O)cc1[C@@H](NC(C)=O)CC2 [ICT3080] ({FITC-βAla}-RS[Cit]G[hPhe]LLY-{NH(Colchicin-10-yl)})
half-life [4]: 134 min | half-life [5]: 48 min

COc1cc2c(c(OC)c1OC)-c1ccc(NC(=O)[C@H](Cc3ccc(O)cc3)NC(=O)[C@H](CC(C)C)NC(=O)[C@H](CO)NC(=O)[C@H](CCc3ccccc3)NC(=O)CNC(=O)[C@H](CCCNC(N)=O)NC(=O)[C@H](CO)NC(=O)[C@H](CCCNC(=N)N)NC(=O)CCNC(=S)Nc3ccc4c(c3)C(=O)OC43c4ccc(O)cc4Oc4cc(O)ccc43)c(=O)cc1[C@@H](NC(C)=O)CC2 [ICT3054] ({FITC-βAla}-RS[Cit]G[hPhe]SLY-{NH(Colchicin-10-yl)})
half-life [4]: 66 min | half-life [5]: 9 min
